Patent publication US7056679

Molecular target: lactate dehydrogenase (LDH)
Experiment: phage ELISA, 405 nm; LDH coated

LDH (OD)	Binder
1.1	ACSVGTALVFPQRWWYLGRSAAAGAPVPYPDPLEPRP (peptide, not shown: large carriers) [DGL-2-20R-3-D6]
1.1	VAFGEQIRVAMAGTLWQRWRAAAGAPVPYPDPLEPRP (peptide, not shown: large carriers) [DGI-2-20R-3-D5]
1	SLSLYWDAQVGCEVFWGYCVAAAGAPVPYPDPLEPRP (peptide, not shown: large carriers) [DGI-2-20R-3-C10]
0.9	RNWLDKDCVWMGDCGARAGEAAAGAPVPYPDPLEPRP (peptide, not shown: large carriers) [DGI-2-20F-4-E3]
1.1	FSSTGILLRSGRATAVGHVTAAAGAPVPYPDPLEPRP (peptide, not shown: large carriers) [DGI-2-20F-3-A6]
1	DGI-2-40F-3-D12 (peptide, not shown: large carriers) peptide: QGSAHVVRPPGVYDVPWKVGMFFHPQNWPNSWGRAYFRSGAAAGAPVPYPDPLEPRP
1.1	DAGIGWVGSMWFPPGCIGACAAAGAPVPYPDPLEPRP (peptide, not shown: large carriers) [DGI-2-20R-4-E82]
1	GNKCFPPHDLFWDPCDQLQSAAAGAPVPYPDPLEPRP (peptide, not shown: large carriers) [DGI-2-20R-4-F6]
0.8	DGI-2-40F-3-C6 (peptide, not shown: large carriers) peptide: QMFSKGNWLAHPEGGVALGLSRESQLFRSCREFGYCMGPMAAAGAPVPYPDPLEPRP
1.2	LTWGPQFGSLQVYSRHRGLPAAAGAPVPYPDPLEPRP (peptide, not shown: large carriers) [DGI-2-20R-4-E4]
0.8	DGI-2-40F-3-B122 (peptide, not shown: large carriers) peptide: HSGNRQSGSRRTHLLNIFCSSDTFVFPGWSAYLSRVCPGDAAAGAPVPYPDPLEPRP
1	TSCQVMFLAGQHLLSRVPRLAAAGAPVPYPDPLEPRP (peptide, not shown: large carriers) [DGL-2-20R-3-B6]
0.8	DGI-2-40F-3-B116 (peptide, not shown: large carriers) peptide: GVVRAQQGLRYELQGDRYRLRRTQWLTVTYCSPSWAFAGCAAAGAPVPYPDPLEPRP
0.8	RFWSVSYQGGRVMCREWGYCLPIAAAGAPVPYPDPLEPRP (peptide, not shown: large carriers) [DGI-2-40F-3-C92]
1	RWSLPAYLCRFVSQASCNSRAAAGAPVPYPDPLEPRP (peptide, not shown: large carriers) [DGI-2-20R-3-C12]
1	DGI-2-40F-3-D6 (peptide, not shown: large carriers) peptide: GLEPVPFQTDKRIAMGWTREWLVNGYGAAHRRDARMQSGHAAAGAPVPYPDPLEPRP
1.1	TANGHRYGGCGLWCKWMSGMAAAGAPVPYPDPLEPRP (peptide, not shown: large carriers) [DGI-2-20R-4-E2]
0.9	LSLLSVVVRSMGASAPQRQVAAAGAPVPYPDPLEPRP (peptide, not shown: large carriers) [DGI-2-20F-3-A7]
1	SWRLWVSGELQGDRRKGLRGAAAGAPVPYPDPLEPRP (peptide, not shown: large carriers) [DGI-2-20R-3-B7]
1	LQIVRPAGWKMPGQVGYYIGAAAGAPVPYPDPLEPRP (peptide, not shown: large carriers) [DGI-2-20R-3-A9]

LDH (OD)	Binder
1.2	LSHPMSPLRAASQMALTQGVAAAGAPVPYPDPLEPRP (peptide, not shown: large carriers) [DGI-2-20R-4-H7]
1.1	GMWIRPNGHMFLQGGYTARSAAAGAPVPYPDPLEPRP (peptide, not shown: large carriers) [DGI-2-20R-4-G8]
1.3	MSTLQGPGHLFQMLRRASLGAAAGAPVPYPDPLEPRP (peptide, not shown: large carriers) [DGI-2-20R-4-H12]
0.9	WAGSTDLWQLWSLWVKPELRAAAGAPVPYPDPLEPRP (peptide, not shown: large carriers) [DGI-2-20F-3-B7]
1.1	PAMGHCMQVLGPVLEGRSRDQVGRAAAGAPVPYPDPLEPRP (peptide, not shown: large carriers) [DGI-2-20R-4-G6]
1	DGI-2-40F-4-F6 (peptide, not shown: large carriers) peptide: SYRNFAMQSSLQVRRGSVVEDGTCWWEGVRCYSGAAAGAPVPYPDPLEPRP
1.1	MGSLGPFGNINSLASGIGSVRNRPLLPLHGSPAAAGAPVPYPDPLEPRP (peptide, not shown: large carriers) [DGI-2-40F-3-D72]
1	LTPYSLARSWLSGRPSTGATAAAGAPVPYPDPLEPRP (peptide, not shown: large carriers) [DGI-2-20F-3-C12]
1.3	LHFGSVMGWRPPGSLWSRPFGQVHPRSWSGSAAAGAPVPYPDPLEPRP (peptide, not shown: large carriers) [DGI-2-40F-3-D11]
1	RWSICRGLQYSIPGCAVEDLSDVMAAAAGAPVPYPDPLEPRP (peptide, not shown: large carriers) [DGI-2-20C-4-H316]
0.9	DGI-2-40F-4-F12 (peptide, not shown: large carriers) peptide: GLYRRAGDASVGFSRWGRFDCQVYFSVECLLGSSWGGYSAAAGAPVPYPDPLEPRP
1.1	LSVFRPGQFPHVGARGVSRTAAAGAPVPYPDPLEPRP (peptide, not shown: large carriers) [DGI-2-20R-4-G32]
0.9	DGL-2-40F-3-D10 (peptide, not shown: large carriers) peptide: TLVTEGNKGSVKAHKDIGVWQLWWDWLSVTDSETVGRVSHAAAGAPVPYPDPLEPRP
1	TPDRCLIYSSIQCLLEYSARRGSADAAAGAPVPYPDPLEPRP (peptide, not shown: large carriers) [DGI-2-20C-3-C65]
1	GLRACDTYLGFCVGARRIDDAAAGAPVPYPDPLEPRP (peptide, not shown: large carriers) [DGI-2-20F-3-B102]
0.9	DGI-2-40F-3-B11 (peptide, not shown: large carriers) peptide: LAPMFLQNQVRTWAASRRPLPAGPSNARCETGSLSPWVPCAAAGAPVPYPDPLEPRP
1	DGI-2-40F-3-B10 (peptide, not shown: large carriers) peptide: MQAASTLSTYMGAIRMGYPILHWDRGGVQRVDPGLYRGRVAAAGAPVPYPDPLEPRP
1	DGI-2-40F-3-D7 (peptide, not shown: large carriers) peptide: ALRSLGSGGFGWQAGRASPQGMTHFPYFGWSGMPTARVRPAAAGAPVPYPDPLEPRP
1	GSVLERGCLEFSGFCFSLGHAAAGAPVPYPDPLEPRP (peptide, not shown: large carriers) [DGI-2-20F-3-C1]
1	YDQVWNSLLAAVLGGQELVNAAAGAPVPYPDPLEPRP (peptide, not shown: large carriers) [DGI-2-20F-3-D112]
